According to paper PMC3792054, “A Remote Palm Domain Residue of RB69 DNA Polymerase Is Critical for Enzyme Activity and Influences the Conformation of the Active Site”:

Assays:
[1] = molecular target: T1, RB69 PolD714A Exo+ (bacteriophage RB69, UniProt Q38087 1-903, D714A); assay: EMSA; apparent Kd; EMSA: 50 nM DNA, 7.5-500 nM Exo+ or 2.5-400 nM Exo- polymerase, native 6% PAGE; buffer, pH and temperature as in ref. 16; conditions: protein: recombinant; label: 5'-32P on primer (20-mer); 5' overhang 6 nt on template; other end blunt
T1 sequence: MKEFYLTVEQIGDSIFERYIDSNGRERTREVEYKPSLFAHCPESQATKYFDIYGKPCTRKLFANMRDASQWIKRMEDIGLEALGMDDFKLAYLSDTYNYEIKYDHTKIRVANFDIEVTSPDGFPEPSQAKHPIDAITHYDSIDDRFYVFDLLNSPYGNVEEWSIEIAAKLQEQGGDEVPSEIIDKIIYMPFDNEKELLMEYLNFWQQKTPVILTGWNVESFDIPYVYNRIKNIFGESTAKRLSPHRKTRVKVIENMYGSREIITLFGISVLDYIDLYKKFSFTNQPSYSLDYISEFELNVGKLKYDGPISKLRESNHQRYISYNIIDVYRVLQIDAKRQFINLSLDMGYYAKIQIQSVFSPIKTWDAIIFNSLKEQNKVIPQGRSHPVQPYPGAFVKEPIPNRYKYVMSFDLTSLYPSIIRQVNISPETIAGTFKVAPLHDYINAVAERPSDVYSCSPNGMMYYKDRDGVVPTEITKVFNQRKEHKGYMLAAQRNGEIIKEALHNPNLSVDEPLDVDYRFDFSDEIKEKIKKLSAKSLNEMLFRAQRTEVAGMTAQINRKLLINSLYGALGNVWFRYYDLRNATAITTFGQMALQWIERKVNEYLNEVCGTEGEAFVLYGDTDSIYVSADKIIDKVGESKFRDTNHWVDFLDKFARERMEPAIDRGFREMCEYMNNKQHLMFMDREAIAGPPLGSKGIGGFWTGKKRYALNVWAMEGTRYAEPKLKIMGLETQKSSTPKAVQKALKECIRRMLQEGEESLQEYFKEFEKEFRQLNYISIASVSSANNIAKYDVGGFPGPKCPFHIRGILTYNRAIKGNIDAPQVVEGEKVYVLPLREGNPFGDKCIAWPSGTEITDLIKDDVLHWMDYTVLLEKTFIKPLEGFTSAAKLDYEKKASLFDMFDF

[2] = molecular target: T2, RB69 DNA polymerase Pol+Exo+ (wild type gp43) (bacteriophage RB69, UniProt Q38087 1-903); assay: as above; conditions: protein: recombinant; label: 5'-32P on primer (20-mer); 5' overhang 6 nt on template; other end blunt
T2 sequence: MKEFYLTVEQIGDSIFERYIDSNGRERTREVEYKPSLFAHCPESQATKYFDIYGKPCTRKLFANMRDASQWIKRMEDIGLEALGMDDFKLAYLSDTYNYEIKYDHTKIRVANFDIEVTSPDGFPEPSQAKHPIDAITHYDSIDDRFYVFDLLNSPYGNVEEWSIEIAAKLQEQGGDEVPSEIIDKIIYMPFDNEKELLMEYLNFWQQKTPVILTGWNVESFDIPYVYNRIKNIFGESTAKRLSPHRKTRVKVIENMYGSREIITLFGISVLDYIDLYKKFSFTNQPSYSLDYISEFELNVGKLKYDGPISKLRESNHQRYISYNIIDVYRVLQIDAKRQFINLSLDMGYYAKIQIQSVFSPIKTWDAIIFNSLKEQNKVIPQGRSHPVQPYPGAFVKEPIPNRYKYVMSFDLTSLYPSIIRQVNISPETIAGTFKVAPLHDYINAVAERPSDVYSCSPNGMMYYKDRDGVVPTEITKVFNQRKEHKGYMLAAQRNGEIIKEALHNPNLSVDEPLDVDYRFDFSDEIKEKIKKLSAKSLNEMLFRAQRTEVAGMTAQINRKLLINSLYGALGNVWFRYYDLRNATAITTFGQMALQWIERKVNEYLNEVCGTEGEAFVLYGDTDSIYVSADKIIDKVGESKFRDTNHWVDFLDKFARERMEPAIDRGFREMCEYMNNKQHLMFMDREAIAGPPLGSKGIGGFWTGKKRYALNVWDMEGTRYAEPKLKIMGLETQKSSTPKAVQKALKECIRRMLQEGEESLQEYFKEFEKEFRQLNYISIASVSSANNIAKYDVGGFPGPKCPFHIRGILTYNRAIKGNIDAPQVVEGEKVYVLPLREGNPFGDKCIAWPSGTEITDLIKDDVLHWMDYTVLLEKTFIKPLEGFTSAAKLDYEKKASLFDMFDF

[3] = molecular target: T3, RB69 Pol+Exo- (bacteriophage RB69, UniProt Q38087 1-903, D222A;D327A); assay: EMSA; binds tighter than Pol+Exo+; value in Table 2/Figure 2E not in material; EMSA: 50 nM DNA, 7.5-500 nM Exo+ or 2.5-400 nM Exo- polymerase, native 6% PAGE; buffer, pH and temperature as in ref. 16; conditions: protein: recombinant; label: 5'-32P on primer (20-mer); 5' overhang 6 nt on template; other end blunt
T3 sequence: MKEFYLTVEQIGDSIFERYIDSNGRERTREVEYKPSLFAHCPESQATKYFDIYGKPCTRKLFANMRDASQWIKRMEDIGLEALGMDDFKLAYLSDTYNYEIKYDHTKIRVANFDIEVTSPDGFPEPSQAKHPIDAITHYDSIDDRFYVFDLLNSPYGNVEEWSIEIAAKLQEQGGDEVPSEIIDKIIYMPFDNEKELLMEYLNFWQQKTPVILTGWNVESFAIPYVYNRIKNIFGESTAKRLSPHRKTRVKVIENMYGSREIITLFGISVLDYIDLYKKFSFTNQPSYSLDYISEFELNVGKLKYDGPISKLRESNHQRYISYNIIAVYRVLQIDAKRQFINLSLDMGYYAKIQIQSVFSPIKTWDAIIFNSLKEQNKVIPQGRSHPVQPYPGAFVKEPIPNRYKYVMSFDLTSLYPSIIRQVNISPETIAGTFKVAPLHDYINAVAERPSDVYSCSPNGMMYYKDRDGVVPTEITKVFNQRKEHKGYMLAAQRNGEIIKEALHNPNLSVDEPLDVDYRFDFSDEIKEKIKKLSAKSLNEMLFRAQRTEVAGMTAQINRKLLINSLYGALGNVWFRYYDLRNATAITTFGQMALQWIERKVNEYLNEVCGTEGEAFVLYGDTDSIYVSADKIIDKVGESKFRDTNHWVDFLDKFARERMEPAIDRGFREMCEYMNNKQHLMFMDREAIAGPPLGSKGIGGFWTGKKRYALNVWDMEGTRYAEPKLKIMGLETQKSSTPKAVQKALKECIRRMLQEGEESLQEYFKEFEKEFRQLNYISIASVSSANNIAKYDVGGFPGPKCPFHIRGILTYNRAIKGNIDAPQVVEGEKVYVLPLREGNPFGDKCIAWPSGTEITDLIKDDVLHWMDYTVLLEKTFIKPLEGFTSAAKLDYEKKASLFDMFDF

[4] = molecular target: T4, RB69 PolD714A Exo- (bacteriophage RB69, UniProt Q38087 1-903, D222A;D327A;D714A); assay: EMSA; almost same affinity as Pol+Exo-; value in Table 2/Figure 2E not in material; EMSA: 50 nM DNA, 7.5-500 nM Exo+ or 2.5-400 nM Exo- polymerase, native 6% PAGE; buffer, pH and temperature as in ref. 16; conditions: protein: recombinant; label: 5'-32P on primer (20-mer); 5' overhang 6 nt on template; other end blunt
T4 sequence: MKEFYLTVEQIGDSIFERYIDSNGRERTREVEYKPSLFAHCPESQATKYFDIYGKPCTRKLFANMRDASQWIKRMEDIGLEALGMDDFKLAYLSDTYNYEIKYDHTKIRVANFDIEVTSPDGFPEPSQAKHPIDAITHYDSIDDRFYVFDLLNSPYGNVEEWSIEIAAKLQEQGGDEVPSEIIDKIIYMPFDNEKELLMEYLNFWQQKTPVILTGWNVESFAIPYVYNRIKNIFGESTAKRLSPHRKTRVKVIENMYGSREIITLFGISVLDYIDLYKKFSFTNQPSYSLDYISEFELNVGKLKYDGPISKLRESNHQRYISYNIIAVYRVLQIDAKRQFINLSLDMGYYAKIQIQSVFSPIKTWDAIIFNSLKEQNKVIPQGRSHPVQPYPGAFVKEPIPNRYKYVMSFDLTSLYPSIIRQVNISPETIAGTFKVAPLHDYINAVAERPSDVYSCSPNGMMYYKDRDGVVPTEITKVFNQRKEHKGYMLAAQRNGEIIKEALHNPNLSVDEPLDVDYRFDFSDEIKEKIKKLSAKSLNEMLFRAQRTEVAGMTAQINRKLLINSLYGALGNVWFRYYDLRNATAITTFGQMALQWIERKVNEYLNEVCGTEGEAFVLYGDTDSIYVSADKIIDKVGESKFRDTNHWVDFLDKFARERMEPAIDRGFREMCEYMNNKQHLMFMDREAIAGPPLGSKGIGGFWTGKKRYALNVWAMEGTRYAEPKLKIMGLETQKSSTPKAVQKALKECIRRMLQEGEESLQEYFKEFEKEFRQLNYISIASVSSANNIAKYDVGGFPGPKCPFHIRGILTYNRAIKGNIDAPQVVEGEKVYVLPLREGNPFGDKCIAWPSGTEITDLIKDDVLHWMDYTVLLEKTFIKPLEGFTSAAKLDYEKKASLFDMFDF

[5] = molecular target: T5, RB69 PolY567A/D714A Exo- (bacteriophage RB69, UniProt Q38087 1-903, D222A;D327A;Y567A;D714A); assay: X-ray crystallography; dGpnpp, Ca2+, Na+; ternary complex I, 2.30 A; conditions: protein: recombinant; template 5' overhang 4 nt and 3' overhang 1 nt
T5 sequence: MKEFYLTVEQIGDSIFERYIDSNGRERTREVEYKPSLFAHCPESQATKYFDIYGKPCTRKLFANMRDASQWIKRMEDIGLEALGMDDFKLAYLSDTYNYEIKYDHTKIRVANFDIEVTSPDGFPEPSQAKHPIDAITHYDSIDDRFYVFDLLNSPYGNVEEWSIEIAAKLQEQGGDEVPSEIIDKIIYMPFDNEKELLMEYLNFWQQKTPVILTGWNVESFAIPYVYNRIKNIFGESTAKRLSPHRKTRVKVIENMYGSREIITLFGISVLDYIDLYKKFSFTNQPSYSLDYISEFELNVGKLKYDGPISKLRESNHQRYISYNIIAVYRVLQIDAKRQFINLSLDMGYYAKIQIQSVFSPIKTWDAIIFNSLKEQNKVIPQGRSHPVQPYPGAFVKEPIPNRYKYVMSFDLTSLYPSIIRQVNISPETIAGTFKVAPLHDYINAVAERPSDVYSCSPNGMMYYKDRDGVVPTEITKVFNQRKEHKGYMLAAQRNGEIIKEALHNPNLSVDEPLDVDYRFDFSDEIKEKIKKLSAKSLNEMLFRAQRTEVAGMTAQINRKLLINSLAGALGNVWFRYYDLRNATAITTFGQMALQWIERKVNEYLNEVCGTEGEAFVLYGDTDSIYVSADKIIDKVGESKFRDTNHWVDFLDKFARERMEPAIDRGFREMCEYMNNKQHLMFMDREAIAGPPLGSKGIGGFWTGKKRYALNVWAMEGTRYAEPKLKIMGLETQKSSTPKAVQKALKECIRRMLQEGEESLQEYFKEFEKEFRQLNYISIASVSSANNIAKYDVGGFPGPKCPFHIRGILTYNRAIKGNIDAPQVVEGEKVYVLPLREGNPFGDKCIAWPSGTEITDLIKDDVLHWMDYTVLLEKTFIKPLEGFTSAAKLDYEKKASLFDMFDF

B1: 20*/26-mer primer-template (dsDNA)
DNA 1: AGCTACGCGGCTGTCATAAG
DNA 2: TTGCGTCTTATGACAGCCGCGTAGCT
Q: How did the Kd [1] turn out when B1 was run?
A: 0.141 µM

Q: What about the Kd [2] of the same binder?
A: 0.176 µM

Q: Does B1 bind [3]?
A: binds

Q: Does B1 bind [4]?
A: binds

B2: 13/18-mer primer-template (crystal) (dsDNA)
DNA 1: GCGGACTGCTTAC
DNA 2: TCACGTAAGCAGTCCGCG
Q: Does B2 bind [5]?
A: binds
